B1: RTP4 (parent)
chain: TYWEHWTSQGQVRMRLFGQRCQKC
B2: C1orf55 (parent)
chain: FTSPDYQQQCHEMAERLEDSVLKG

Variants of: B1
Test: protein stability index of a GFP-peptide fusion (GPS, HEK-293T) (PSI 1-6); higher = more stable
Settings: c terminus: a fixed tail appended
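Also: lentivirally expressed fusions sorted by FACS into six bins by GFP to DsRed ratio, PSI derived from sequencing read proportions per bin multiplied by bin number.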

Protein stability index: each site, then its substitutions
F17: P 2.38, I 1.67, K 1.92, N 2.9, L 1.85, Y 1.55, G 2.31, W 2.44, S 2.27, T 2.02, Q 2.26, C 2.57, A 1.87, H 2.79, E 2.29
W3: K 2.96, D 2.88, T 3.21, H 3.61, C 5.05, N 2.98, P 2.25, R 1.73, A 2.07, G 1.63, I 1.69, Y 1.54, E 1.77, Q 2.51
S8: C 1.79, R 1.89, D 1.87, G 2.05, I 2.05, Y 1.82, T 3.23, K 2.5, M 3.02, A 3.23, L 1.23, H 2.56, E 1.76, V 1.67, P 1.66
W6: F 1.39, L 1.61, M 1.52, E 1.95, V 2.32, R 2.7, D 3.38, G 1.75, S 2.13, N 2.11, C 2.25, Q 2.65, A 2.4, T 1.94
L16: W 1.62, C 2.99, Q 1.79, F 2.22, P 2.13, Y 2.61, A 1.6, H 2.34, T 1.14, K 1.25, S 1.75, N 2.43, I 1.62, V 1.81, R 1.91, G 2.13, D 2.85
V12: E 2.19, H 2.21, Y 2.65, K 1.57, R 1.76, D 1.7, Q 1.51, P 1.98, N 1.65, T 2.09, W 3.46, A 1.04, I 1.61, C 2.42
R20: M 2.69, P 1.78, F 1.82, K 1.86, T 2.22, H 1.63, L 1.75, E 1.57, W 2.49, C 2.72, Y 1.97, D 2.47, G 1.93, I 1.03
E4: H 1.71, G 2.45, Q 3.01, P 1.49, M 2.86, K 3.32, C 1.15, N 1.1
G18: K 1.86, M 1.36, C 2.03, E 2.24, N 2.14, A 1.96, S 1.46, F 1.87, P 1.81, Q 1.4, Y 2.41, T 1.91, H 2.23, R 2.02, W 1.74
M14: C 2.58, A 2, K 2.9, R 2.29, G 2.51, V 1.89, S 1.5, E 2.36, Y 1.9, H 2.18, F 1.63, N 1.69, Q 1.73, W 1.77, T 1.84
C24: Y 2.15, R 2.29, P 1.69, T 2.41, Q 2.28, N 2.22, L 2.2, M 2.29, V 2.03, F 2.78, A 2.31, G 2.2, E 2.34, W 1.54, D 2.53, K 3.24, H 2.07

Variants of: B2
Test: as above
Settings: c terminus: a fixed tail appended

Protein stability index of substitutions, site by site:
G24: S 1.89, Y 1.8, V 1.72, Q 2, W 1.78, R 1.87, T 2.26, P 2, N 2.15

Source: the supplement of paper PMC10567573
